# T1: ovalbumin (UniProt P01012 2-386)
# T1 sequence (looked up): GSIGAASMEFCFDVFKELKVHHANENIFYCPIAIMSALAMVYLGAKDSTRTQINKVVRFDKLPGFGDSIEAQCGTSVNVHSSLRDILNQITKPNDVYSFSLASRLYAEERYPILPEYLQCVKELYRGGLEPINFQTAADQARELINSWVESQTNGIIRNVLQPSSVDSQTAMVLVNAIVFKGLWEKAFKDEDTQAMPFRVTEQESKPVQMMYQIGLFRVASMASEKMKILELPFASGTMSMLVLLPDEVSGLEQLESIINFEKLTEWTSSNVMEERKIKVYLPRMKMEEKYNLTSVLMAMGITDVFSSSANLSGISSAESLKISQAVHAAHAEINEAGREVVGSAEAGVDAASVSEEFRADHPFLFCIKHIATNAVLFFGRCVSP
# B1: 2G12 domain exchanged Fab fragment displayed on phage, expressed from the 2G12 pCAL G13 vector (SEQ ID NO: 11) (Fab, not shown: small tags and cut ends; large carriers)
# heavy 1: EVQLVESGGGLVKAGGSLILSCGVSNFRISAHTMNWVRRVPGGGLEWVASISTSSTYRDYADAVKGRFTVSRDDLEDFVYLQMHKMRVEDTAIYYCARKGSDRLSDNDPFDAWGPGTVVTVSPASTKGPSVFPLAPSSKSTSGGTAALGCLVKDYFPEPVTVSWNSGALTSGVHTFPAVLQSSGLYSLSSVVTVPSSSLGTQTYICNVNHKPSNTKVDKKVEPKSCLRYPYDVPDYA
# heavy 2: B1 heavy 1
# light: AGVVMTQSPSTLSASVGDTITITCRASQSIETWLAWYQQKPGKAPKLLIYKASTLKTGVPSRFSGSGSGTEFTLTISGLQFDDFATYHCQHYAGYSATFGQGTRVEIKRTVAAPSVFIFPPSDEQLKSGTASVVCLLNNFYPREAKVQWKVDNALQSGNSQESVTEQDSKDSTYSLSSTLTLSKADYEKHKVYACEVTHQGLSSPVTKSFNRGEC
# notes: also called 2G12 Fab; 2G12 alone
# B2: 2G12 domain exchanged Fab fragment displayed on phage, expressed from the 2G12 pCAL A1 vector (SEQ ID NO: 217) (Fab)
# heavy 1: EVQLVESGGGLVKAGGSLILSCGVSNFRISAHTMNWVRRVPGGGLEWVASISTSSTYRDYADAVKGRFTVSRDDLEDFVYLQMHKMRVEDTAIYYCARKGSDRLSDNDPFDAWGPGTVVTVSPASTKGPSVFPLAPSSKSTSGGTAALGCLVKDYFPEPVTVSWNSGALTSGVHTFPAVLQSSGLYSLSSVVTVPSSSLGTQTYICNVNHKPSNTKVDKKVEPKSCLR
# heavy 2: B2 heavy 1
# light: B1 light
# Target: T1, ovalbumin
# Experiment: phage ELISA, anti-HA or anti-M13 detection
row,Binder,binding result
1,B1,no binding
2,B2,no binding

# Source: patent US20100081575A1 (published 2010)
